Test system: T1, KZ-sarcin recombinant protein
T1 sequence: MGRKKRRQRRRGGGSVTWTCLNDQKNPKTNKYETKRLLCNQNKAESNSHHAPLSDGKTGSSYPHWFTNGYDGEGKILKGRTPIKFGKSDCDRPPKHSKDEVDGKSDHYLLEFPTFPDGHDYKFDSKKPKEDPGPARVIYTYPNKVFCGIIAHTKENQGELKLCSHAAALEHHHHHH

## caspase-3 (Sigma Chem. Co, U.S.A.)
  hydrolysis of KZ-sarcin by caspase-3, SDS-PAGE (room temperature, 15 minutes): KZ-sarcin recombinant protein was hydrolyzed by caspase-3 into two fragments of 12 kb and 8.5 kb

Source: patent publication US20170152293
